Reference: patent publication US20120315277A1, “Compositions and Methods for the Therapy and Diagnosis of Influenza” (priority 2011, published 2012)
Where two headings read alike, the source gives them in different places.

How the values were obtained:
M2 peptide SEQ ID NO 273 = test: peptide ELISA, 5 µg/mL
[1] = target: truncated M2 peptide SEQ ID NO 271; test: peptide ELISA, 5 µg/mL
[2] = target: truncated M2 peptide SEQ ID NO 298; test: peptide ELISA, 5 µg/mL
[3] = target: truncated M2 peptide SEQ ID NO 299; test: peptide ELISA, 5 µg/mL
[4] = target: truncated M2 peptide SEQ ID NO 300; test: peptide ELISA, 5 µg/mL
[5] = target: truncated M2 peptide SEQ ID NO 301; test: peptide ELISA, 5 µg/mL
[6] = target: truncated M2 peptide SEQ ID NO 302; test: peptide ELISA, 5 µg/mL
[7] = target: truncated M2 peptide SEQ ID NO 303; test: peptide ELISA, 5 µg/mL
[8] = target: truncated M2 peptide SEQ ID NO 304; test: peptide ELISA, 5 µg/mL
[9] = target: truncated M2 peptide SEQ ID NO 305; test: peptide ELISA, 5 µg/mL
[10] = target: truncated M2 peptide SEQ ID NO 306; test: peptide ELISA, 5 µg/mL
[11] = target: truncated M2 peptide SEQ ID NO 307; test: peptide ELISA, 5 µg/mL
[12] = target: truncated M2 peptide SEQ ID NO 308; test: peptide ELISA, 5 µg/mL
[13] = target: truncated M2 peptide SEQ ID NO 309; test: peptide ELISA, 5 µg/mL
[14] = target: truncated M2 peptide SEQ ID NO 310; test: peptide ELISA, 5 µg/mL
[15] = target: truncated M2 peptide SEQ ID NO 311; test: peptide ELISA, 5 µg/mL
[16] = target: truncated M2 peptide SEQ ID NO 312; test: peptide ELISA, 5 µg/mL
[17] = target: truncated M2 peptide SEQ ID NO 313; test: peptide ELISA, 5 µg/mL
[18] = target: truncated M2 peptide SEQ ID NO 314; test: peptide ELISA, 5 µg/mL
[19] = target: truncated M2 peptide SEQ ID NO 315; test: peptide ELISA, 5 µg/mL
[20] = target: truncated M2 peptide SEQ ID NO 316; test: peptide ELISA, 5 µg/mL
[21] = target: 23 amino acid synthetic M2e peptide of A/Fort Worth/1/50 (H1N1) (influenza A virus A/Fort Worth/1/50 (H1N1)); test: ELISA on coated 23mer M2e peptide
[22] = target: truncated M2 peptide SEQ ID NO 298; test: peptide ELISA, 5 µg/mL; remark: listed apart in the source
[23] = target: truncated M2 peptide SEQ ID NO 299; test: peptide ELISA, 5 µg/mL; remark: listed apart in the source
[24] = target: truncated M2 peptide SEQ ID NO 309; test: peptide ELISA, 5 µg/mL; remark: listed apart in the source
A.Hong Kong.1144.99.H3N2 = target: T1, A.Hong Kong.1144.99.H3N2; test: FACS, transfected 293 cells
T1 M2: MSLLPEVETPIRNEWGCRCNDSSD

A.Hong Kong.1180.99 H3N2 = target: T2, A.Hong Kong.1180.99 H3N2; test: FACS, transfected 293 cells
T2 M2: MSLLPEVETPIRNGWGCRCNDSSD

A.Hong Kong.1.68.H3N2 [25] = target: T3, A.Hong Kong.1.68.H3N2; test: FACS, transfected 293 cells, 1 µg/mL
T3 M2: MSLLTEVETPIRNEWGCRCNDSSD

A.Caracas.1.71.H3N2 [26] = target: T4, A.Caracas.1.71.H3N2; test: FACS, transfected 293 cells, 1 µg/mL
T4 M2: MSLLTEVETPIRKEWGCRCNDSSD

A.Hong Kong.1.68.H3N2 [27] = target: T3, A.Hong Kong.1.68.H3N2; test: FACS, transfected HEK293, 1 µg/ml [D00006 FIG. 3C-1]
A.Caracas.1.71.H3N2 [28] = target: T4, A.Caracas.1.71.H3N2; test: as above

“14C2 (chimeric mouse V-region/human IgG1 kappa 14C2 antibody)” was tested. Which ELISA A450 (M2 peptide SEQ ID NO 273) did it give?
Its ELISA A450 is 3.85.

What about the ELISA A450 [1] of the same molecule?
Its ELISA A450 is 0.21.

And the ELISA A450 [2]?
Its ELISA A450 is 3.94.

What about the ELISA A450 [3] of the same molecule?
Its ELISA A450 is 3.95.

What about the ELISA A450 [4] of the same molecule?
Its ELISA A450 is 0.15.

What about the ELISA A450 [5] of the same molecule?
Its ELISA A450 is 0.19.

And the ELISA A450 [6]?
Its ELISA A450 is 0.23.

What about the ELISA A450 [7] of the same molecule?
The ELISA A450 was 0.19.

What about the ELISA A450 [8] of the same molecule?
The ELISA A450 was 0.23.

And the ELISA A450 [9]?
The ELISA A450 was 0.22.

What about the ELISA A450 [10] of the same molecule?
The ELISA A450 was 0.27.

And the ELISA A450 [11]?
Its ELISA A450 is 3.99.

What about the ELISA A450 [12] of the same molecule?
The ELISA A450 was 3.9.

What about the ELISA A450 [13] of the same molecule?
Its ELISA A450 is 3.97.

What about the ELISA A450 [14] of the same molecule?
Its ELISA A450 is 3.97.

And the ELISA A450 [15]?
The ELISA A450 was 0.18.

And the ELISA A450 [16]?
The ELISA A450 was 0.2.

What about the ELISA A450 [17] of the same molecule?
Its ELISA A450 is 0.21.

And the ELISA A450 [18]?
Its ELISA A450 is 0.17.

And the ELISA A450 [19]?
Its ELISA A450 is 0.15.

And the ELISA A450 [20]?
Its ELISA A450 is 0.14.

And the EC50 [21]?
The EC50 was 0.01 µg/mL.

B1: 23K12 (antibody, V domains shown)
VH: EVQLVESGGGLVQPGGSLRISCAASGFTVSSNYMSWVRQAPGKGLEWVSVIYSGGSTYYADSVKGRFSFSRDNSKNTVFLQMNSLRAEDTAVYYCARCLSRMRGYGLDVWGQGTTVTVS
VL: DIQMTQSPSSLSASVGDRVTITCRTSQSISSYLNWYQQKPGKAPKLLIYAASSLQSGVPSRFSGSGSGTDFTLTISGLQPEDFATYYCQQSYSMPAFGQGTKLEIK
B1 was tested. Which ELISA A450 [22] did it give?
Its ELISA A450 is 0.21.

What about the ELISA A450 [23] of the same molecule?
Its ELISA A450 is 0.21.

And the ELISA A450 [24]?
The ELISA A450 was 0.3.

Does B1 bind (A.Hong Kong.1144.99.H3N2)?
Result: no binding (tested: 1 µg/mL)

Does B1 bind (A.Hong Kong.1180.99 H3N2)?
Result: no binding (tested: 1 µg/mL)

Does B1 bind (A.Hong Kong.1.68.H3N2 [25])?
Result: binds

Does B1 bind (A.Caracas.1.71.H3N2 [26])?
Result: binds

B2: 8I10 (antibody, V domains shown)
VH: QVQLQESGPGLVKPSETLSLTCTVSGSSISNYYWSWIRQSPGKGLEWIGFIYYGGNTKYNPSLKSRVTISQDTSKSQVSLTMSSVTAAESAVYFCARASCSGGYCILDYWGQGTLVTVS
VL: DIQMTQSPSSLSASVGDRVTITCRASQNIYKYLNWYQQRPGKAPKGLISAASGLQSGVPSRFSGSGSGTDFTLTITSLQPEDFATYYCQQSYSPPLTFGGGTRVEIK
Does B2 bind (A.Hong Kong.1144.99.H3N2)?
Result: no binding (tested: 1 µg/mL)

Does B2 bind (A.Hong Kong.1180.99 H3N2)?
Result: no binding (tested: 1 µg/mL)

Does B2 bind (A.Hong Kong.1.68.H3N2 [27])?
Result: binds

Does B2 bind (A.Caracas.1.71.H3N2 [28])?
Result: binds
